# In patent US20240190991A1, “COMBINATION THERAPY WITH AN ANTI-CA19-9 ANTIBODY AND FOLFIRINOX IN THE TREATMENT OF CANCER” (BioNTech SE, priority 2021, published 2024):
# Test system: locally-advanced or metastatic pancreatic ductal adenocarcinoma (PDAC)
# Assay: Clinical study of MVT-5873 as monotherapy or combined with FOLFIRINOX in pancreatic cancer patients
# Assay type: in vivo, human
# Conditions: Group C patients; MVT 5873 0.5 mg/kg in combination with mFOLFIRINOX; one, two or six cycles of therapy
# Description: A clinical study is performed comparing the therapeutic effect of the use of the MVT-5873 monoclonal antibody (5B1 monoclonal antibody) as a monotherapy or in combination with FOLFIRINOX in the treatment of pancreatic cancer, in patients with locally-advanced or metastatic pancreatic ductal adenocarcinoma (PDAC). Patients having other CA19-9-positive malignancies may also be included in the study.
# The patients will be subdivided into the following groups: • Group A: A Q4 week monotherapy schedule employing a single dose of MVT 5873 administered 7 days prior to Cycle 1 Day 1 • Group B: A Q2 week monotherapy schedule employing a single dose of MVT 5873 administered 7 days prior to Cycle 1 Day 1 • Group C: A Q2 week schedule in combination with mFOLFIRINOX mFOLFIRINOX is a dose amount of FOLFIRINOX, in which FOLFIRINOX is administered at a dose of 65 mg/m^2 oxaliplatin, 400 mg/m^2 leucovorin, 150 mg/m^2 irinotecan, and 1200 mg/m^2 5-fluorouracil.
# In certain groups, the patients, after completing the combination therapy will be administered the antibody having the ability to bind CA 19-9 as a monotherapy.
# The administration schedule for Group C is depicted in FIG. 1.
# A number of patients in Group C have been administered MVT 5873 at 0.5 mg/kg in combination with mFOLFIRINOX (65 mg/m^2 oxaliplatin, 400 mg/m^2 leucovorin, 150 mg/m^2 irinotecan, and 1200 mg/m^2 5-fluorouracil). […]
substance,measurement,value
"MVT 5873: fully human IgG1 monoclonal antibody that targets sialyl Lewis A (sLe^a), an epitope on CA19-9; VH and VL of SEQ ID NO: 2 and 4",dose limiting toxicities,No dose limiting toxicities
